This is an account of results in patent US20160130361A1.

For assay [1], the target named is rFVIIIFc. The experiment in a line: SPR (ProteOn XPR36), mean of triplicate.
Assay [2] has as its target BDD rFVIII (B domain deleted recombinant Factor VIII) (human) (UniProt P00451). Kind of assay: SPR (ProteOn XPR36), mean of triplicate.
For assay [3] the target is unchanged. Kind of assay: method not printed on the sheet or in the legend (affinities of Example 3 are by SPR); SD 0.0073 printed in the same row.
Assay [4] deals with rFVIIIFc. Kind of assay: method not printed on the sheet or in the legend (affinities of Example 3 are by SPR); SD 0.0023 printed in the same row.
Assay [5] addresses rFVIIIFc. Kind of assay: SPR, ProteOn XPR36; run 2 of 3 (middle panel) [continued].
Assay [6] has as its target BDD rFVIII (B domain deleted recombinant Factor VIII) (human) (UniProt P00451). Described as above.
Assay [7] deals with rFVIIIFc. Kind of assay: SPR, ProteOn XPR36; run 3 of 3 (bottom panel) [continued].
For assay [8], the target named is BDD rFVIII (B domain deleted recombinant Factor VIII) (human) (UniProt P00451). Described as above.
In assay [9] the target is rFVIIIFc. Kind of assay: SPR, ProteOn XPR36; run 1 of 3 (top panel) [continued].
Assay [10] has as its target BDD rFVIII (B domain deleted recombinant Factor VIII) (human) (UniProt P00451). Described as above.
In assay [11] the target is rFVIIIFc. Kind of assay: SPR, ProteOn XPR36; run 3 of 3 (bottom panel).
Assay [12] deals with BDD rFVIII (B domain deleted recombinant Factor VIII) (human) (UniProt P00451). The experiment in a line: SPR, ProteOn XPR36; run 3 of 3 (bottom panel).
Assay [13] addresses rFVIIIFc. The experiment in a line: SPR, ProteOn XPR36; run 2 of 3 (middle panel).
Assay [14] deals with BDD rFVIII (B domain deleted recombinant Factor VIII) (human) (UniProt P00451). Kind of assay: SPR, ProteOn XPR36; run 2 of 3 (middle panel).
Assay [15] addresses rFVIIIFc. Kind of assay: SPR, ProteOn XPR36; run 1 of 3 (top panel).
The target of assay [16] is BDD rFVIII (B domain deleted recombinant Factor VIII) (human) (UniProt P00451). Kind of assay: SPR, ProteOn XPR36; run 1 of 3 (top panel).

Sequence of UniProt P00451 (P00451 other isoform, or with tags, fused parts or gaps): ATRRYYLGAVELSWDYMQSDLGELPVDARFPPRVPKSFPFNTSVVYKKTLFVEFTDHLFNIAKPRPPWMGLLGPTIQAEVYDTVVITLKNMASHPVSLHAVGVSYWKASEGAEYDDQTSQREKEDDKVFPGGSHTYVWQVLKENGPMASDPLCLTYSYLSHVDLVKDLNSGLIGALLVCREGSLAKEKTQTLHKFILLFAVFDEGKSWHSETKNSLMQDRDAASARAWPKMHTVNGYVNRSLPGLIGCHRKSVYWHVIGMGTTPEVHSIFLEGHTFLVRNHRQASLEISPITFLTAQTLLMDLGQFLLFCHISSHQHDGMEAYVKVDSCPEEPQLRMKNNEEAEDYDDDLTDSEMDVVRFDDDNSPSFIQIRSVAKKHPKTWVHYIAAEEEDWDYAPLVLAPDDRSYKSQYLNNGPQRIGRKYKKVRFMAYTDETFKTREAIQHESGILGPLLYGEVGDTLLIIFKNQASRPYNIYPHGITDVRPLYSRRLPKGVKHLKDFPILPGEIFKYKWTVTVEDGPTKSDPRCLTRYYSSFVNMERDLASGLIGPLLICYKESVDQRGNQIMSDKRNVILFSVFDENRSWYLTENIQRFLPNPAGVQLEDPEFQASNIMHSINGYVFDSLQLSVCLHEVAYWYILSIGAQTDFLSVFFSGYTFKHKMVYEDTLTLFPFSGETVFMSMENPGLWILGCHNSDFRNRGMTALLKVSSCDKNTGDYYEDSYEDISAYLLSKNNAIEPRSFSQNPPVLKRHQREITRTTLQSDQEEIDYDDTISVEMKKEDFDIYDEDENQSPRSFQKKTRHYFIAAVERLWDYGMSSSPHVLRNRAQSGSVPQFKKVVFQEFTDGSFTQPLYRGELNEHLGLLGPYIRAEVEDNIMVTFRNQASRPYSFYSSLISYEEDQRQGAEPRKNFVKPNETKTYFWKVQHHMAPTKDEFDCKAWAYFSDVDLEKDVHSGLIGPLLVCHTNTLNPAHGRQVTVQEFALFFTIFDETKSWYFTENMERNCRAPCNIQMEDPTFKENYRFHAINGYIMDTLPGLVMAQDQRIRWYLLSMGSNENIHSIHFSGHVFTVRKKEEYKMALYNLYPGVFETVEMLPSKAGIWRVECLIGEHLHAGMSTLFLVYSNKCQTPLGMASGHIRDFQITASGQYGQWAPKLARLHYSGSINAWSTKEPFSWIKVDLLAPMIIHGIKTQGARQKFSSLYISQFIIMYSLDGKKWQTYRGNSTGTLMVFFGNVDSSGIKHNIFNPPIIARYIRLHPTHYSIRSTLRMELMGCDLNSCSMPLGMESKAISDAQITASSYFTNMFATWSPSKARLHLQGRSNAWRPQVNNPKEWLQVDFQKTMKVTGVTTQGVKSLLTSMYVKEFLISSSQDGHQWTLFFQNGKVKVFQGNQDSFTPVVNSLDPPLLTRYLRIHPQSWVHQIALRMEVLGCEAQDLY

Take ESH4 (antibody): the Kd with rFVIIIFc [1] stood at 0.277 nM; in assay [2], 0.248 nM.
For ESH8 (antibody) the same measures were 0.142 nM and 0.104 nM.
Take ESH8 Fab: the equilibrium dissociation constant (Kd) in [3] turned out to be 0.104 nM; in the assay with rFVIIIFc [4], 0.142 nM.
In the case of GMA012 (antibody), the Kd with rFVIIIFc [1] turned out to be 0.474 nM; in [2], 0.325 nM.
Regarding GMA8011 (antibody), the Kd was determined as 0.0873 nM in the assay with rFVIIIFc [1]; 0.0921 nM in [2]; 0.0804 nM with rFVIIIFc [5]; 0.0897 nM in assay [6]; 0.0902 nM with rFVIIIFc [7]; 0.101 nM in assay [8]. Also, the results for the Kd (with rFVIIIFc [9]; in [10]) were 0.0913 nM and 0.0855 nM, respectively. For the same substance, the dissociation rate constant (koff) in the assay with rFVIIIFc [5] worked out at 0.00012 s⁻¹; in assay [6], 0.000138 s⁻¹; in the assay with rFVIIIFc [7], 0.000127 s⁻¹; in assay [8] it was 0.000143 s⁻¹; in the assay with rFVIIIFc [9], 0.000133 s⁻¹; in [10], 0.000131 s⁻¹. For the same substance, the association rate constant (kon) turned out to be 1.49e+06 M⁻¹ s⁻¹ with rFVIIIFc [5]; 1.54e+06 M⁻¹ s⁻¹ in assay [6]; 1.4e+06 M⁻¹ s⁻¹ with rFVIIIFc [7]; 1.42e+06 M⁻¹ s⁻¹ in assay [8]; 1.46e+06 M⁻¹ s⁻¹ with rFVIIIFc [9]; 1.53e+06 M⁻¹ s⁻¹ in assay [10].
Turning to GMA8014 (antibody), the dissociation constant (Kd) came to 0.118 nM with rFVIIIFc [1]; 0.118 nM in assay [2]; 0.12 nM in the assay with rFVIIIFc [11]; 0.114 nM in assay [12]; 0.139 nM with rFVIIIFc [13]; 0.117 nM in assay [14]. The Kd worked out at 0.127 nM in the assay with rFVIIIFc [15] and 0.126 nM in [16]. Further, the koff was determined as 0.000104 s⁻¹ in the assay with rFVIIIFc [11]; 0.000119 s⁻¹ in assay [12]; 0.000104 s⁻¹ in the assay with rFVIIIFc [13]; 0.000131 s⁻¹ in assay [14]; 0.000103 s⁻¹ with rFVIIIFc [15]; 0.000127 s⁻¹ in assay [16]. Besides, the on-rate (kon) with rFVIIIFc [11] came to 865000 M⁻¹ s⁻¹; in [12], 1.04e+06 M⁻¹ s⁻¹; in the assay with rFVIIIFc [13] it was 746000 M⁻¹ s⁻¹; in [14] it was 1.12e+06 M⁻¹ s⁻¹; with rFVIIIFc [15], 809000 M⁻¹ s⁻¹; in assay [16], 1e+06 M⁻¹ s⁻¹.
In the case of GMA8020 (antibody), the dissociation constant Kd in the assay with rFVIIIFc [1] worked out at 0.0683 nM; in assay [2], 0.0731 nM; with rFVIIIFc [5] it was 0.0743 nM; in assay [6] it was 0.0722 nM; with rFVIIIFc [7], 0.066 nM; in assay [8], 0.07 nM. Besides, the equilibrium dissociation constant (Kd) with rFVIIIFc [9] was found to be 0.0647 nM; in [10], 0.077 nM. In addition, the koff with rFVIIIFc [5] stood at 0.000118 s⁻¹; in [6], 0.000124 s⁻¹; with rFVIIIFc [7], 0.00011 s⁻¹; in assay [8], 0.000119 s⁻¹; with rFVIIIFc [9], 0.000102 s⁻¹; in assay [10] it was 0.000127 s⁻¹. For the same substance, the on-rate constant (kon) was determined as 1.59e+06 M⁻¹ s⁻¹ with rFVIIIFc [5]; 1.72e+06 M⁻¹ s⁻¹ in assay [6]; 1.66e+06 M⁻¹ s⁻¹ with rFVIIIFc [7]; 1.7e+06 M⁻¹ s⁻¹ in [8]; 1.58e+06 M⁻¹ s⁻¹ with rFVIIIFc [9]; 1.65e+06 M⁻¹ s⁻¹ in assay [10].
